B1: HDV Ribozyme (parent)
chain: GGCCGGCAUGGUCCCAGCCUCCUCGCUGGCGCCGGCUGGGCAACAUUCCGAGGGGACCGUCCCCUCGGUAAUGGCGAAUGGGACCCA

Variants of: B1
Experiment: self-cleavage, relative activity (ratio to wild type); higher = more cleavage; co-transcriptional

Row | Variant | self-cleavage
1 | C15A U46G | 0.383
2 | C15A C61U | 0.752
3 | C15A G67C | 0.782
4 | C14U C33U | 0.975
5 | C15G G73C | 0.231
6 | C14U U23A | 1.04
7 | C15A U69A | 0.506
8 | C15A U69G | 0.492
9 | C14U C64G | 1.24
10 | C15A G73U | 0.095
11 | C15G A43G | 0.237
12 | C15A C26A | 0.529
13 | C15A C26G | 0.415
14 | C15A C58A | 0.332
15 | C15A C44G | 0.431
16 | C15A C44U | 0.426
17 | C15G C84A | 0.519
18 | C14U G67C | 0.929
19 | C14U G52U | 1.04
20 | C15G G35A | 0.196
21 | C15G G35C | 0.0791
22 | C15G G81U | 0.297
23 | C15G C57A | 0.703
24 | C15G C41G | 0.289

Row | Variant | self-cleavage
25 | C15G U60G | 0.712
26 | C14G G74U | 0.128
27 | C14G G74C | 0.0639
28 | C15G G59A | 0.831
29 | C15G G59C | 0.767
30 | C15G G40U | 0.354
31 | C15G G40A | 0.762
32 | C15A A43U | 0.212
33 | C15G G34U | 0.19
34 | C15A A45U | 0.475
35 | C15G C62U | 0.665
36 | C15G A83G | 0.185
37 | C15G A87U | 0.475
38 | C14U C44A | 1.01
39 | C15G G53A | 0.353
40 | C15G A16G | 0.665
41 | C15G G54U | 0.59
42 | C14G U60C | 0.443
43 | C15A G54A | 0.504
44 | C15A G54U | 0.585
45 | C15G A78C | 0
46 | C15G A78U | 0.375
47 | C15G U46A | 0.399
48 | C15A C49A | 0.974

Row | Variant | self-cleavage
49 | C15A C75A | 0.115
50 | C14U U69G | 0.755
51 | C15A C63G | 0.539
52 | C15G G76U | 0.831
53 | C14G U46C | 0.511
54 | C15A C18U | 0.295
55 | C14G U79G | 0
56 | C15A A70C | 0.554
57 | C14U C62A | 1.06
58 | C14G G80C | 0.0723
59 | C15A G31U | 0.0339
60 | C15A C84U | 0.665
61 | C15G G52A | 0.807
62 | C15G C22G | 0.119
63 | C15G C22A | 0.0504
64 | C14U C18A | 0
65 | C14U G76A | 1.49
66 | C15G U69C | 0.65
67 | C14U C22U | 0.935
68 | C15G G55U | 0.677
69 | C15G U23A | 0.68
70 | C15G U23C | 0.332
71 | C15G C85U | 0.453
72 | C15G C85G | 0.196

Row | Variant | self-cleavage
73 | C15G U47A | 0.723
74 | C15A C36A | 0.0692
75 | C15A C36U | 0.253
76 | C14U G73U | 0.309
77 | C15G G74U | 0.0875
78 | C14U C26U | 1.07
79 | C14U C41G | 1.06
80 | C14U C41A | 1.06
81 | C14U U47A | 0.906
82 | C15A G29A | 0.117
83 | C15G G82U | 0.229
84 | C15A C48A | 0.597
85 | C14U C24A | 0.76
86 | C14U C24G | 0.121
87 | C15A C86U | 0.831
88 | C15A C86G | 0.748
89 | C15A U79G | 0.831
90 | C14U G81U | 0.729
91 | C14G U65C | 0.8
92 | C14G U65A | 0.65
93 | C14U U46G | 0.875
94 | C14U G31A | 0.475
95 | C15A G25A | 0.0504
96 | C15A C21G | 0

Row | Variant | self-cleavage
97 | C15G U37C | 0.875
98 | C15G U37G | 0
99 | C15G U37A | 0
100 | C15A C24G | 0.032
101 | C15G C19G | 0
102 | C15A G39A | 0.095
103 | C15A U37C | 0.665
104 | C15G C21A | 0.0707
105 | C15G C21G | 0
106 | C15G C21U | 0.0405
107 | C15G C86G | 0.317
108 | C15A G82C | 0.415
109 | C15A G82A | 0.369
110 | C15G C32U | 0.437
111 | C15A A56U | 0.743
112 | C15A G52U | 0.844
113 | C14U A56G | 1.16
114 | C15U A16C | 1.33
115 | C15U A16G | 1.05
116 | C14G U69A | 0.767
117 | C14U U37A | 0.151
118 | C14U G40U | 0.724
119 | C14U G40A | 1.17
120 | C14G G68U | 0.277

Row | Variant | self-cleavage
121 | C14G G73U | 0.0755
122 | C14U G80A | 0.486
123 | C14U A83C | 0.499
124 | C15A U27G | 0.653
125 | C15G C63G | 0.475
126 | C15G C63U | 0.394
127 | C15A G35C | 0.138
128 | C15A G35A | 0.405
129 | C14U A78C | 0.237
130 | C14U G29U | 0.0739
131 | C15G G39U | 0.128
132 | C15A U60G | 0.731
133 | C14U C75G | 0.353
134 | C14U C15G | 0.415
135 | C14U C84U | 0.845
136 | C14U A43C | 0.364
137 | C15A G38A | 0.0978
138 | C15A G68U | 0.309
139 | C15A G28A | 0.136
140 | C15G C24A | 0.482
141 | C14U G39U | 0.895
142 | C14U A45U | 0.892
143 | C15A G76C | 0.767
144 | C14U A77G | 1.31

Row | Variant | self-cleavage
145 | C15A G40C | 0.0875
146 | C15A G40U | 0.352
147 | C14U G55A | 1.21
148 | C15A U23A | 0.604
149 | C15A U23G | 0.185
150 | C14U C49G | 0.831
151 | C15A C33A | 0.256
152 | C14U G34A | 0.17
153 | C14U C36G | 0.322
154 | C15G A56G | 0.712
155 | C14U C32A | 0.101
156 | C15G C58A | 0.437
157 | C15A A83C | 0.196
158 | C15G G28U | 0.0437
159 | C15G U20A | 0.128
160 | C15G G68C | 0.511
161 | C15A A16C | 0.415
162 | C15G A70G | 0.554
163 | C14U U79G | 0.89
164 | C14U A51G | 0.898
165 | C15A G80A | 0.831
166 | C14U U72A | 0.745
167 | C14U U72G | 0.598

From the RNAGym collection of RNA variant scans (doi:10.7554/elife.80360)
